In assay [1] the target is full length cTRα (chicken) (UniProt P04625). The assay can be described thus: cell-based or functional assay.
In the next assay the target is T1, B42-hRXRα LBD (human, UniProt P19793 198-462).
T1 construct: also called B42-RXR LBD; LBD of RXR (fused with B-42)
T1 sequence (looked up): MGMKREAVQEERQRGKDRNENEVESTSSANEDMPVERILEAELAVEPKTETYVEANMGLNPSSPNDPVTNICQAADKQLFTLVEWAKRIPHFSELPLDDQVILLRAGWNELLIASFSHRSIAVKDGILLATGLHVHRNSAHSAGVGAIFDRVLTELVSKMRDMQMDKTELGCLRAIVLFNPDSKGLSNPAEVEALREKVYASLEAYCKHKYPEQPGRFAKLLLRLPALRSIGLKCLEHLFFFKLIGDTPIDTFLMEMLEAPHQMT
The assay can be described thus: yeast two-hybrid (data not shown). On the procedure: (§1) The following receptor baits were used: LexA-cTRα LBD, LexA-hTRβ LBD, LexA-hRARα LBD, LexA-hRXRα LBD, and LexA-hGR LBD. […] Yeast cells harboring appropriate plasmids were grown in selective media with Gal/Raf in the presence or absence of cognate ligand (1 μM T3 for TR, all trans or 9-cis RA for RAR, 9-cis RA for RXR, and 10 μM deoxycorticosterone for GR) overnight before β-galactosidase activity was assayed using o-Nitrophenyl β-D-Galactopyranoside as the substrate. β-galactosidase units are expressed as (O.D. 420 nm×1000)/(minutes of incubation×O.D. 600 nm of yeast suspension).

The target in the next assay is T2, B42-hRARα LBD (human, UniProt P10276 154-462).
T2 construct: also called B42-RAR LBD; LBD of RAR
T2 sequence (looked up): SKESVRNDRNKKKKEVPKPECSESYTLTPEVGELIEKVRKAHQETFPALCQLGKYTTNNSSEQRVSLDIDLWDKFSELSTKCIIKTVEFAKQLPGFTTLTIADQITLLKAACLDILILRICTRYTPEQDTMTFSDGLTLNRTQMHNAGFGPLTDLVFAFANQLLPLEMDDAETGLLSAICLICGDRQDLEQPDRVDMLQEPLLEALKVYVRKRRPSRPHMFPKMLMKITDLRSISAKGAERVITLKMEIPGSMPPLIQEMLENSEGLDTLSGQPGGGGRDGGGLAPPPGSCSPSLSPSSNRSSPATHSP
The assay can be described thus: yeast two-hybrid (data not shown). The protocol:
as §1

The next assay deals with T3, B42-cTRα LBD (chicken, UniProt P04625 120-408).
T3 construct: also called B42-TR LBD; LBD of TR (fused with B-42)
T3 sequence (looked up): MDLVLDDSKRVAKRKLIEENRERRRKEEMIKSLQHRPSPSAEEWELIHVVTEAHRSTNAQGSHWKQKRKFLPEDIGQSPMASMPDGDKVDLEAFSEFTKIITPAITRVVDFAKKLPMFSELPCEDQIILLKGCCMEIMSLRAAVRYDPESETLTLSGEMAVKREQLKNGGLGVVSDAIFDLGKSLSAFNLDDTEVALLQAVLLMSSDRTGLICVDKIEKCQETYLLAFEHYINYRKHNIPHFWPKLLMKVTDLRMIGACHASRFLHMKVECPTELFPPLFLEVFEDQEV
Kind of assay: yeast two-hybrid (data not shown). The protocol:
as §1

A further assay has as its target T4, LexA-hRXRα LBD (human, UniProt P0A7C2 1-202; P19793 198-462, limits assumed).
T4 construct: also called LexA-RXR
T4 sequence (looked up): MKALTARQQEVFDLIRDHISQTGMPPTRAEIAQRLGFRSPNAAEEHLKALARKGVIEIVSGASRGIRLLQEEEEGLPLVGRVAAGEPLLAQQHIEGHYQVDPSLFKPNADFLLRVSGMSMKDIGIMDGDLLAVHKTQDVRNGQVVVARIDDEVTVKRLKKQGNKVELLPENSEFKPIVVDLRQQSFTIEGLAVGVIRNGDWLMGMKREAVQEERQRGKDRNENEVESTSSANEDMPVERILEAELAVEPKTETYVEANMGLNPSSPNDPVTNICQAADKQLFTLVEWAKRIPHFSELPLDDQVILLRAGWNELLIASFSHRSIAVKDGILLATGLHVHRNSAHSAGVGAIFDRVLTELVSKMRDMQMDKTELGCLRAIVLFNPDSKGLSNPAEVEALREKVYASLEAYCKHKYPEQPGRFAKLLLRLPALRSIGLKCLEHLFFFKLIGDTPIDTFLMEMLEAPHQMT
The assay can be described thus: yeast two-hybrid, β-galactosidase (FIG. 8B). The protocol:
as §1

Another assay has as its target T5, LexA-cTRα LBD (chicken, UniProt P0A7C2 1-202; P04625 120-408, limits assumed).
T5 construct: also called LexA-TR LBD; LexA-TR
T5 sequence (looked up): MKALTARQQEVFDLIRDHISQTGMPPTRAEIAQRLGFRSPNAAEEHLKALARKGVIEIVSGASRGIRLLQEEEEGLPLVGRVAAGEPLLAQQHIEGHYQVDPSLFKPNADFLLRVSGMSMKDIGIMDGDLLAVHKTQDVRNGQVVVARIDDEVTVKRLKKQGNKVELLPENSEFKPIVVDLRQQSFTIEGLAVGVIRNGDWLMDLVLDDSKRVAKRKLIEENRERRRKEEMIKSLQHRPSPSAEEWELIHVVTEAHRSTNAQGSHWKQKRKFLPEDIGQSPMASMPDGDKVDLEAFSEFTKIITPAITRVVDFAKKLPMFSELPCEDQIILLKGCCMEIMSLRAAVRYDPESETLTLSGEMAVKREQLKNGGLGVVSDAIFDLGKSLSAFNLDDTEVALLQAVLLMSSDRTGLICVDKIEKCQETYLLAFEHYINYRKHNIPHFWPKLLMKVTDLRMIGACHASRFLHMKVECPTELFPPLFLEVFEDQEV
Kind of assay: yeast two-hybrid, β-galactosidase (FIG. 8B). On the procedure: as §1

For another assay, the target named is T6, LexA-hGR LBD (human, UniProt P0A7C2 1-202; P04150 485-777, limits assumed).
T6 construct: also called LexA-GR
T6 sequence (looked up): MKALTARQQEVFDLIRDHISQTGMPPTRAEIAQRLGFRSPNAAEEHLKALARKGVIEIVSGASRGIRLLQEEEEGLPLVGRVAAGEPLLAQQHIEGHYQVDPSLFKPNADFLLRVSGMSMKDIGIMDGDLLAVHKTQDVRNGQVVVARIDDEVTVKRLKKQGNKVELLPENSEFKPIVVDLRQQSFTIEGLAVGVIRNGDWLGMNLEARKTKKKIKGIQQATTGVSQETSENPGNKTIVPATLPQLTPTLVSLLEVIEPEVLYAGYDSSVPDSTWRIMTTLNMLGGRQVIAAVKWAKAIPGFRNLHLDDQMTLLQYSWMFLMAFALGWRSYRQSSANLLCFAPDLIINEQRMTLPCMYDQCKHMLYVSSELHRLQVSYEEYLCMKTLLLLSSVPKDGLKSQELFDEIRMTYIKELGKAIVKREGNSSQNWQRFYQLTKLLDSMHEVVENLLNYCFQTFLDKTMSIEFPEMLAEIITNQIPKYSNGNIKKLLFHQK
The assay can be described thus: yeast two-hybrid (data not shown). The protocol:
as §1

The next assay deals with T7, LexA-hRARα LBD (human, UniProt P0A7C2 1-202; P10276 154-462, limits assumed).
T7 construct: also called LexA-RAR
T7 sequence (looked up): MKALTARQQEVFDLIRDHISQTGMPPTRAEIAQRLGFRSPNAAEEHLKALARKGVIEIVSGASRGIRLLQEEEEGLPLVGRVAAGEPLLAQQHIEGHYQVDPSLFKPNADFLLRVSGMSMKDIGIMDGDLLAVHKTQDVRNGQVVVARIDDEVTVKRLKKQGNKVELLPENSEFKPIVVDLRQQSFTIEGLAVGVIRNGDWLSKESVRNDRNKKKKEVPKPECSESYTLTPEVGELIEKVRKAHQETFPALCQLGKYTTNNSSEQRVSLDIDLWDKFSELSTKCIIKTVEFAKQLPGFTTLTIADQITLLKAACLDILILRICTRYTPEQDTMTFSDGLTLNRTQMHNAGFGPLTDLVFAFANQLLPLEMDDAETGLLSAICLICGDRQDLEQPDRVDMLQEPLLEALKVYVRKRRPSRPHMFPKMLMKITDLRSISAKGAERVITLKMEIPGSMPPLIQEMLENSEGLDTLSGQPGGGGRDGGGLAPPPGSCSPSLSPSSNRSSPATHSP
The assay can be described thus: yeast two-hybrid (data not shown). On the procedure:
as §1

Three molecules from US20090286252A1 (NEW YORK UNIVERSITY, published 2009) can be followed below.

In the case of “NRIF3 (full length) (from UniProt Q13352 1-177)”, in assay [1], the enhancement of TR-mediated activation of the GH-TRE-tk-CAT reporter in HeLa cells (FIG. 5B) was determined as 3.5 fold and the enhancement of TR-mediated activation of the IR-ΔMTV-CAT reporter in HeLa cells (FIG. 5A) fell in the range of 2.5 to 3 fold.

B1: LexA alone (other, UniProt P0A7C2 1-202, looked up)
chain: MKALTARQQEVFDLIRDHISQTGMPPTRAEIAQRLGFRSPNAAEEHLKALARKGVIEIVSGASRGIRLLQEEEEGLPLVGRVAAGEPLLAQQHIEGHYQVDPSLFKPNADFLLRVSGMSMKDIGIMDGDLLAVHKTQDVRNGQVVVARIDDEVTVKRLKKQGNKVELLPENSEFKPIVVDLRQQSFTIEGLAVGVIRNGDWL
notes: Negative control bait; also called bait LexA alone (negative control)
As to B1, the binding result in the assay with B42-hRXRα LBD, in the assay with B42-hRARα LBD and with B42-cTRα LBD was “no binding” throughout.

B2: β3-endonexin short form (EnS) expressed from pJG4-5 (other, not shown: large carriers)
chain: MPVKRSLKLDGLLEENSFDPSKITRKKSVITYSPTTGTCQMSLFASPTSSEEQKHRNGLSNEKRKKLNHPSLTESKESTTKDNDEFMMLLSKVEKLSEEIMEIMQNLSSIQ
notes: Yeast two-hybrid prey; also called pJG4-5/EnS
In the case of B2, the binding result with LexA-hRXRα LBD, with LexA-cTRα LBD, with LexA-hGR LBD and in the assay with LexA-hRARα LBD was “no binding” each time.
